# Assay results: article PMC11513070
# B1: SPPL2c isoform A: N106A (protein)
# parent chain: MACLGSLHPLGSLLLLFLLLLLSPEARGEYGLVRVVSKNWSKDYCVLYSSDYVNLPRDLHHAPLLSLHDGTKTPWCPDEDSFHQAQDSSPRQRPLHQTTTMVTRGNCSFYAKGWLAQDQGAQGLLIVSRARNQQCSDTISKPQDPSKPWPALTIPVAVLRYTDMLDIVSHTYGDTDVRVAMFAPLEPVTDYNMAIIFILAVGTVAAGGYWAGLMEANKLQRRQAQRGGGLGGHNQQQTVAAERSQRAWEDDDFEDAPMDFTPAMTGAVVTMSCSIMILLYFFYDCFVYVMIGIFSLGASTGLYSCLAPILCHLPLWRYQWVLPGQRVSVTWPLLLLAGLCAMVTVLWVIHRNEDHWAWLLQDTLGVAYCLFVLRRVRLPTFKNCTLFLLALLAFDVFFVFITPLFTKTGESIMVEVASGPADSSSHERLPMVLKVPRLSFSALTLCNQPFSILGFGDIVVPGFLVAYCHRFDMQVQSRQVYYMACTVAYAVGLLVTFVAMILMQMGQPALLYLVSSTLLTSLAVATCRQEFTLFWTGQGRAKIPAEPVAQPCIASAVGSKMKLEDAKDSRTTNRFEQAVDGESGDLESSTGDDMAEMVTLSEDEATSPEGHSESSEGWSDTNLDPNELPSGSPMALEAMLIPLIQPIPHPSELGHIRTQSRVHDSSLPWMGLHKRKGLKVKKSMSAQAPL
# B2: SPP: N10/20A (protein)
# parent chain: MDSAVSDPHNGSAEAGTPANGTTRPPSTPEGIALAYGSLLLMALLPIFFGALRSVRCARGKSSSDMPETITSRDAARFPIIASCTLLGLYLFFKIFSQEYINLLLSMYFFVLGILALSHTISPFMNKFFPANFPNRQYQLLFTQGSGENKEEIINYEFDTKDLVCLGLSSVVGVWYLLRKHWIANNLFGLAFSLNGVELLHLNNVSTGCILLGGLFIYDIFWVFGTNVMVTVAKSFEAPIKLVFPQDLLEKGLEADNFAMLGLGDIVIPGIFIALLLRFDISLKKNTHTYFYTSFAAYIFGLGLTIFIMHIFKHAQPALLYLVPACIGFPVLVALAKGEVAEMFSYEESNPKDPAAETESKEESTEASASKRLEKKEK
# Assays:
# [1] = immunofluorescence of HO-1 ICD nuclear translocation, HeLa; conditions: glycan lost; control: wild type SPPL2c-myc
# [2] = cell-based cleavage assay, western blot; conditions: glycan lost
# [3] = western blot of total lysates, HEK293T; conditions: glycan lost; control: wild type SPPL2c-myc
Protein,enzymatic_activity [1],enzymatic_activity ([2]; control: wild type SPPL2c-myc),expression_or_secretion [3],enzymatic_activity ([2]; control: wild type SPP-myc)
B1,abolishes,abolishes,decreases,–
B2,–,–,–,no change
